Test results reported in article doi:10.1101/2021.06.15.448552 (bioRxiv, 2021).
Several values for one entry are separate records, joined by “and”; a condition that tells them apart may be missing. Equal values may be shown once.

Columns and labels:
[1] = target: borneol-type dehydrogenase SrBDH1 from Salvia rosmarinus (S. rosmarinus); assay: SEC-MALS
[2] = target: borneol-type dehydrogenase SrBDH1 from Salvia rosmarinus (S. rosmarinus); assay: cryo-EM structure
SEC-MALS = target: the molecule itself; assay: SEC-MALS

## borneol-type dehydrogenase SrBDH1 from Salvia rosmarinus (enzyme)
[1]
  stoichiometry N: 4
[2]
  stoichiometry N: 4

B1: borneol-type dehydrogenase SoBDH2 from Salvia officinalis (enzyme)
chain: MATGAANVESPQSLPLRLLGRVALVTGGSSGIGESIVLLFRKHGAKVCIADVQDNQGQRLCETLGGSSDIAFCHCDVTIEDDVKRAVDFTVDKFGTLDIMVNNAGVSGPPCPDIRDFELSAFDRVFDINVRGVFIGMKHAARIMIPAKKGSIISISSVASTMGGLGPHAYTGSKHAVLGLTKNVAAELGKHGIRVNCVSPYAVATSLALAHLPEAERTEDTWDDFRRFVADNANLQGVELTMEDVANAVVFLASDEARYVSGMNLMVDGGFTSTNHALQVFRP
SEC-MALS
  stoichiometry N: 8 and 4
